The target of assay [1] is T1, recombinant human Ang1 carrier-free (R&D Systems, Cat#923-AN-025/CF) (human, UniProt Q15389 20-498, limits assumed).
T1 construct: Bought recombinant protein; also called angiopoietin 1
T1 sequence: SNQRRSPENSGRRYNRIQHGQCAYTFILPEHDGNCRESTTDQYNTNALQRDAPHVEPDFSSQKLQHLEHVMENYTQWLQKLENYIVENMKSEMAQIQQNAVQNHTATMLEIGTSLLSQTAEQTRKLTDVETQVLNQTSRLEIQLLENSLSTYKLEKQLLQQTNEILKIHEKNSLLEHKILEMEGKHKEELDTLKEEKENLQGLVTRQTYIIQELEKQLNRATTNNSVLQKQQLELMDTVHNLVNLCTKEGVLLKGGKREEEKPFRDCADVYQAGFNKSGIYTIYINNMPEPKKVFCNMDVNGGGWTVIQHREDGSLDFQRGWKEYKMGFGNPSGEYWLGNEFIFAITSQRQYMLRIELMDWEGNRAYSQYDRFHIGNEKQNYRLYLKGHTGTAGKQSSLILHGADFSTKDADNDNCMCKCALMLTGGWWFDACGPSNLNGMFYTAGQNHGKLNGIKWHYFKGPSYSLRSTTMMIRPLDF
The assay can be described thus: SPR competition (BIAcore), Tie-2/Fc immobilised; Ang1 100-500 nM with peptide 10-50 µM at 1:100. On the procedure: Peptide-protein interaction was analyzed using surface plasmon resonance. Analysis of is the interaction between CGEN-G6 [SEQ ID NO: 6], CGEN-F9 [SEQ ID NO: 7], CGEN-C6 [SEQ ID NO: 9], CGEN-A11 [SEQ ID NO: 10], and CGEN-G2 [SEQ ID NO: 11] peptides and recombinant human Tie-2/Fc chimera (carrier-free, R&D Systems, Cat#313-TI, Lot#BKC0707121) was conducted using the BIAcore biosensor (Pharmacia Biosensor, Uppsala, Sweden). The recombinant Tie-2/Fc chimera was immobilized directly to a CM5 sensor chip. Solutions containing 10-50 μM of CGEN-G6 [SEQ ID NO: 6], CGEN-F9 [SEQ ID NO: 7], CGEN-C6 [SEQ ID NO: 9], CGEN-A11 [SEQ ID NO: 10], and CGEN-G2 [SEQ ID NO: 11] were injected into the sample chamber of the BIACORE device at a rate of 20 μl/min and the interaction was monitored using surface plasmon resonance. In addition, solutions containing 100-500 nM of Ang1, Ang2, and Ang4 proteins were injected alone or in combination with 10-50 μM of CGEN-G6 [SEQ ID NO: 6], CGEN-F9 [SEQ ID NO: 7], CGEN-C6 [SEQ ID NO: 9], CGEN-A11 [SEQ ID NO: 10], and CGEN-G2 [SEQ ID NO: 11] peptides at a constant ratio of 1:100 (Ang ligand to peptide) into the sample chamber of the BIACORE device at a rate of 20 μl/min and the interaction was monitored using surface plasmon resonance.
Binding of Ang2 to Tie2 was reduced by 91-100% after incubation with CGEN-G6 [SEQ ID NO: 6] and CGEN-C6 [SEQ ID NO: 9], and to a lesser extent after incubation with CGEN-A11 [SEQ ID NO: 10] and CGEN-F9 [SEQ ID NO: 7] peptides (FIG. 5B). […] Binding of peptides alone to Tie2 was negligible in most cases.
For orientation: Surface plasmon resonance follows binding to a sensor surface in real time, without labels.

Assay [2] deals with T2, recombinant human Ang2 carrier-free (R&D Systems, Cat#623-AN-025/CF) (human, UniProt O15123 19-496).
T2 construct: Bought recombinant protein; also called angiopoietin 2
T2 sequence: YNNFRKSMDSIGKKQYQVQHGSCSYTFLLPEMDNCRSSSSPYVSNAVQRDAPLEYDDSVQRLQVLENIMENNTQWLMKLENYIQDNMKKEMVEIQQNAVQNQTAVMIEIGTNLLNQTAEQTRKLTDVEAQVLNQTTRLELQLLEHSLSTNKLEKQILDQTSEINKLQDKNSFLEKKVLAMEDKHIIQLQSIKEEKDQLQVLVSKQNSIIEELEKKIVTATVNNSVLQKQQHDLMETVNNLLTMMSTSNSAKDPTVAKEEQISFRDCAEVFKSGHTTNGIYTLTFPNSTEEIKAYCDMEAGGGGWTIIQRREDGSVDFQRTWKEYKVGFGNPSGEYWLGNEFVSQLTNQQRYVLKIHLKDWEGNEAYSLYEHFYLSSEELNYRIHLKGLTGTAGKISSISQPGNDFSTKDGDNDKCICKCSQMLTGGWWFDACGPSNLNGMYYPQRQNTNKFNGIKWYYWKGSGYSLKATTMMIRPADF
The assay can be described thus: SPR (BIAcore), Ang2 immobilised on CM5, peptide 10-50 µM. On the procedure:
(§1) Peptide-protein binding was analyzed using surface plasmon resonance. Analysis of the to interaction between CGEN-H2 [SEQ ID NO: 1], CGEN-H3 [SEQ ID NO: 2], CGEN-A8 [SEQ ID NO: 3], CGEN-H7 [SEQ ID NO: 4], CGEN-G4 [SEQ ID NO: 5], CGEN-G6 [SEQ ID NO: 6], CGEN-F9 [SEQ ID NO: 7], CGEN-F12 [SEQ ID NO: 8], CGEN-C6 [SEQ ID NO: 9], CGEN-A11 [SEQ ID NO: 10], and CGEN-G2 [SEQ ID NO: 11] peptides and recombinant human Ang1 carrier-free (R&D Systems, Cat#923-AN-025/CF, Lot#FHW1507031), human Ang2 carrier-free (R&D Systems, Cat#623-AN-025/CF, Lot#BNO0457121), and human Ang4 carrier-free (R&D Systems, Cat#964-AN-025/CF, Lot#ELM025121) was conducted using the BIAcore biosensor (Pharmacia Biosensor, Uppsala, Sweden). The recombinant Ang1, Ang2, and Ang4 were immobilized directly to a CM5 sensor chip. Solutions containing 10-50 μM of CGEN-H2 [SEQ ID NO: 1], CGEN-H3 [SEQ ID NO: 2], CGEN-A8 [SEQ ID NO: 3], CGEN-H7 [SEQ ID NO: 4], CGEN-G4 [SEQ ID NO: 5], CGEN-G6 [SEQ ID NO: 6], CGEN-F9 [SEQ ID NO: 7], CGEN-F12 [SEQ ID NO: 8], CGEN-C6 [SEQ ID NO: 9], CGEN-A11 [SEQ ID NO: 10], and CGEN-G2 [SEQ ID NO: 11] peptides were injected into the sample chamber of the BIACORE device at a rate of […] and the interaction was monitored using surface plasmon resonance. […] Binding of CGEN-C6 to Ang2 was not sufficiently strong and too noisy for kinetic measurements or determination of affinity constant.

In assay [3] the target is T3, recombinant human Ang4 carrier-free (R&D Systems, Cat#964-AN-025/CF) (human, UniProt Q9Y264 25-503, limits assumed).
T3 construct: Bought recombinant protein; also called angiopoietin 4
T3 sequence: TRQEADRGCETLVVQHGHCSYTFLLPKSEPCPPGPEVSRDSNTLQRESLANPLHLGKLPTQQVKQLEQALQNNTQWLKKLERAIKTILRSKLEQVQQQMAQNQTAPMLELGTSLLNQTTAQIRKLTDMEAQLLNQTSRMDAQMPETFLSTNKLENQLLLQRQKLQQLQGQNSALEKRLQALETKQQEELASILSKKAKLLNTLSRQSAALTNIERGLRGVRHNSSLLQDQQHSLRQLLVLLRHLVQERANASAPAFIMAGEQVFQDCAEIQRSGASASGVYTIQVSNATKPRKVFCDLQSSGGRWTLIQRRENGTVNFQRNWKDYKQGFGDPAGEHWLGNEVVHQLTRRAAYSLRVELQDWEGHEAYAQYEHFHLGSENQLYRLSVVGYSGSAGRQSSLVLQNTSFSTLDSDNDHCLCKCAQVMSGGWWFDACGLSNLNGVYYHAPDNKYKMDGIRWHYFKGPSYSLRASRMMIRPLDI
The assay can be described thus: SPR (BIAcore), Ang4 immobilised on CM5 chip, peptide injected. On the procedure: as §1

The target of assay [4] is T3, recombinant human Ang4 carrier-free …. As to the kind of experiment: SPR (BIAcore), Ang4 immobilised on CM5, peptide 0.625-0.039 µM, 1:1 Langmuir fit. On the procedure: (§2) Peptide-protein binding was analyzed using surface plasmon resonance. […] Solutions containing 10-50 μM of CGEN-H2 [SEQ ID NO: 1], CGEN-H3 [SEQ ID NO: 2], CGEN-A8 [SEQ ID NO: 3], CGEN-H7 [SEQ ID NO: 4], CGEN-G4 [SEQ ID NO: 5], CGEN-G6 [SEQ ID NO: 6], CGEN-F9 [SEQ ID NO: 7], CGEN-F12 [SEQ ID NO: 8], CGEN-C6 [SEQ ID NO: 9], CGEN-A11 [SEQ ID NO: 10], and CGEN-G2 [SEQ ID NO: 11] peptides were injected into the sample chamber of the BIACORE device at a rate of […] and the interaction was monitored using surface plasmon resonance. […]
(§3) Peptides CGEN-G6 [SEQ ID NO: 6], CGEN-F9 [SEQ ID NO: 7], CGEN-F12 [SEQ ID NO: 8], CGEN-A11 [SEQ ID NO: 10], and CGEN-G2 [SEQ ID NO: 11] were capable of binding to immobilized Ang1, Ang2, and Ang4 on the chip and were further analyzed for binding kinetics, as follows. Solutions containing different concentrations of CGEN-G6 [SEQ ID NO: 6], CGEN-F9 [SEQ ID NO: 7], CGEN-F12 [SEQ ID NO: 8], CGEN-A11 [SEQ ID NO: 10], and CGEN-G2 [SEQ ID NO: 11] peptides (as indicated in Table 2) were injected into the sample chamber of the BIACORE device at a rate of […] and the interaction was monitored using surface plasmon resonance.

The target of assay [5] is T1, recombinant human Ang1 carrier-free …. The assay can be described thus: SPR (BIAcore), Ang1 immobilised on CM5, peptide 0.625-0.039 µM, 1:1 Langmuir fit. On the procedure:
as §2, §3

The target in assay [6] is T2, recombinant human Ang2 carrier-free …. As to the kind of experiment: SPR (BIAcore), Ang2 immobilised on CM5, peptide 0.625-0.039 µM, 1:1 Langmuir fit. On the procedure:
as §2, §3

Assay [7] has as its target T3, recombinant human Ang4 carrier-free …. The assay can be described thus: SPR (BIAcore), Ang4 immobilised on CM5, peptide 25-1.56 µM, 1:1 Langmuir fit. On the procedure: as §2, §3
The target of assay [8] is T2, recombinant human Ang2 carrier-free …. As to the kind of experiment: SPR (BIAcore), Ang2 immobilised on CM5, peptide 25-1.56 µM, 1:1 Langmuir fit. On the procedure:
as §2, §3

The target in assay [9] is T1, recombinant human Ang1 carrier-free …. As to the kind of experiment: SPR (BIAcore), Ang1 immobilised on CM5, peptide 25-1.56 µM, 1:1 Langmuir fit. On the procedure:
as §2, §3

Assay [10] deals with T3, recombinant human Ang4 carrier-free …. The assay can be described thus: SPR (BIAcore), Ang4 immobilised on CM5, peptide 1.25-0.039 µM, 1:1 Langmuir fit. On the procedure: as §2, §3
In assay [11] the target is T1, recombinant human Ang1 carrier-free …. The assay can be described thus: SPR (BIAcore), Ang1 immobilised on CM5, peptide 1.25-0.039 µM, 1:1 Langmuir fit. On the procedure: as §2, §3
Assay [12] has as its target T2, recombinant human Ang2 carrier-free …. The assay can be described thus: SPR (BIAcore), Ang2 immobilised on CM5. On the procedure: as §1

Where only a bound is given, the exact number is not on record here.

For the molecule Ac-TDMEAQLLNQTSRMDAQM-NH2 (MW 2124.5) [CGEN-C6 (SEQ ID NO: 9)], the “reduction of Ang1 binding to Tie2” value in assay [1] was not above 34%. The binding result in [2] is “binds”; in assay [3], “no binding (tested: 10-50 µM)”.

As usually defined, the Kd is the concentration at which binding is half-saturated. As for Ac-TQQVKQLEQALQNNTQWLKKLERAIKTIL-NH2 [CGEN-G2 (SEQ ID NO: 11)], the dissociation constant (Kd) in assay [4] amounted to 25 nM; in [5] it was 17.4 nM; in assay [6], 56.6 nM.

In the case of Ac-QHSLRQLLVLLRHLVQERANASA-NH2 (MW 2694.3) [CGEN-F12 (SEQ ID NO: 8)], the figures for the dissociation constant (Kd) in [4], in [5] and in [6] were 0.243 nM, 1.88 nM and 5840 nM, respectively.

Turning to Ac-QEELASILSKKAKLLNTLSRQSAALTNIERGLRGVR-NH2 (MW 4006.8) [CGEN-F9 (SEQ ID NO: 7)], the “reduction of Ang1 binding to Tie2” value in [1] is not above 34%. For the same molecule, the dissociation constant Kd in assay [7] came to 2.82 µM; in assay [8], 3070 nM; in [9], 21.4 µM.

As to Ac-DLMETVNNLLTMMSTSNSAKD-NH2 (MW 2356.8) [CGEN-G6 (SEQ ID NO: 6)], the equilibrium dissociation constant (Kd) in assay [10] was 22.1 nM; in assay [11], 13.3 nM. Further, the “reduction of Ang1 binding to Tie2” value in assay [1] is not above 34%. Also, in [12], the binding result is on record as “binds”.

Take Ac-ETFLSTNKLENQ-NH2 (MW 1464.7) [CGEN-A11 (SEQ ID NO: 10)]: the “reduction of Ang1 binding to Tie2” value in assay [1] is not above 34%. Further, the figures for the equilibrium dissociation constant (Kd) in [7], in assay [8] and in assay [9] were 3.69 µM, 2360 nM and 6.74 µM, respectively.
